Values quoted from earlier work in publication PMC5540906.
Where “and” joins values, the source holds several entries; their conditions need not be identical. Equal entries are not always repeated.

Columns and labels:
[1] = biological target: ClpP tetradecamer (Escherichia coli) (UniProt P0A6G7); experiment: activity measurements
[2] = biological target: DnaK (Thermus thermophilus) (UniProt Q72IK5)
Sequence of UniProt Q72IK5 (Q72IK5 whole entry): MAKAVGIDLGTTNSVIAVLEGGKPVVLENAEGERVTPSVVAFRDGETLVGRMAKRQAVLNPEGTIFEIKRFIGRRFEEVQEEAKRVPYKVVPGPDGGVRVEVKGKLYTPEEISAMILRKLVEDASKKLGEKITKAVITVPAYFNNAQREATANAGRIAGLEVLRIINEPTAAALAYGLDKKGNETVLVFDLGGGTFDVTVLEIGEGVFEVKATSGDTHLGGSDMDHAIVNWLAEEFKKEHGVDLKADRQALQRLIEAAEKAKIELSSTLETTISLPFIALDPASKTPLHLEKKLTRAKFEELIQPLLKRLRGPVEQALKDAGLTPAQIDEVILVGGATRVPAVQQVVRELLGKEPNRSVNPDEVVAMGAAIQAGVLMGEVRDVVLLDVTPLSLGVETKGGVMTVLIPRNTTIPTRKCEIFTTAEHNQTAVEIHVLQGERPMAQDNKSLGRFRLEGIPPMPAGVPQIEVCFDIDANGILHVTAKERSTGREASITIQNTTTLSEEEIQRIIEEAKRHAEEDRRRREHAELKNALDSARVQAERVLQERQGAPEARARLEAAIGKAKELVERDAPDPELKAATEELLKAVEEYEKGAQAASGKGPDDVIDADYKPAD

Sequence of UniProt P0A6G7 (P0A6G7 15-207): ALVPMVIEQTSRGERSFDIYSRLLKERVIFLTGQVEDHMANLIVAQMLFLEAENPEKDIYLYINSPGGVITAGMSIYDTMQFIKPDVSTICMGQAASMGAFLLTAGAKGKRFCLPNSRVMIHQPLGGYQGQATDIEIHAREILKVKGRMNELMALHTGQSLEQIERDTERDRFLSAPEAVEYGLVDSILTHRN

Kd [1] [µM]	Kd [2]	Substance
0.004		ClpA hexamer (from UniProt P0ABH9)
	17 µM and 25 µM	ClpB (from UniProt Q72IK9)
